Laboratory results from article PMC8666976.
Where two headings read alike, the source gives them in different places.

Key:
human C3b (human) [1] = biological target: human C3b (human) (UniProt P01024); assay: ELISA; plates coated with human C3b at 15 nM overnight at 4°C in 50 mM NaHCO3 buffer pH 9.6, blocked with 4% BSA in PBS-T; serially diluted FH CCP 15–20 or CCP 18–20 samples (concentrated supernatants) incubated 1 h at 37°C; bound FH detected with goat antiserum to human FH
human C3b (human) [2] = biological target: human C3b (human) (UniProt P01024); assay: as above; remark: listed apart in the source

UniProt P01024, sequence (P01024 749-1663, chain 1 of 2): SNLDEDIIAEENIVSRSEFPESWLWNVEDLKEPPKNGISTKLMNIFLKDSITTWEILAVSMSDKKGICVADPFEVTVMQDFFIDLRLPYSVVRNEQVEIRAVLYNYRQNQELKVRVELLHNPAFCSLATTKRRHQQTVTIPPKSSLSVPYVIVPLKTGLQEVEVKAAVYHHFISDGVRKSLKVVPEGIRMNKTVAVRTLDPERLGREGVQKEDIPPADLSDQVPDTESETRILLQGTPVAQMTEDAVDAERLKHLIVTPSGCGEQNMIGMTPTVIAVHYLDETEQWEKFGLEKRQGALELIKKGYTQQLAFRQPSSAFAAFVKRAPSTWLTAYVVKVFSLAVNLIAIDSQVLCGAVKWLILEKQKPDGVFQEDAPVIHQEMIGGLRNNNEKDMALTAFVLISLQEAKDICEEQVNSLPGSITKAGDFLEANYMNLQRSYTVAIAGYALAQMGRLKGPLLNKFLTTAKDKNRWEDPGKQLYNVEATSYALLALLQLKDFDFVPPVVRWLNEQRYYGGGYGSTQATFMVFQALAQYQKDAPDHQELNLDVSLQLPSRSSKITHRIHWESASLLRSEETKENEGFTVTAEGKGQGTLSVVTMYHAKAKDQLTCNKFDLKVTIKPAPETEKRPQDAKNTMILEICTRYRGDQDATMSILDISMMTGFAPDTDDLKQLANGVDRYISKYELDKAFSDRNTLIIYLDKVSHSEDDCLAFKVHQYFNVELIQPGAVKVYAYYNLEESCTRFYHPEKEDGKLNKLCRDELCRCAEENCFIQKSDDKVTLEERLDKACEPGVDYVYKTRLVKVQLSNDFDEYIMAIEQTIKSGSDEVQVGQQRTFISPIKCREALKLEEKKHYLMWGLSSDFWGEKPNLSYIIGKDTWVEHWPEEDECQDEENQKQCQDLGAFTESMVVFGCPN
UniProt P01024, sequence (P01024 749-1663, chain 2 of 2): as the sequence (P01024 749-1663, chain 1 of 2) above

Factor H CCP 15–20 fragment, variant T956M (domain or fragment)
percent decrease in C3b binding compared to WT (human C3b (human) [1]): 35% | percent decrease in C3b binding compared to WT (human C3b (human) [2]): 30%
